As a reminder, the Km is the concentration of substrate that gives half-maximal velocity. One may read the kcat/Km as the second-order rate constant that governs catalysis at low substrate concentration.

Substrate in this data set: Nc1nc2c(ncn2[C@@H]2O[C@H](COP(=O)(O)OP(=O)(O)OP(=O)(O)O)[C@@H](O)[C@H]2O)c(=O)[nH]1
Briefly: coupled enzymatic assay of AK3 activity. The settings on record: other: GTP as varied substrate, 300 μM AMP, 2 mM MgCl2. Type of data set: biochemical, human.

B1: human AK3 (Homo sapiens) (protein)
chain: MGASARLLRAVIMGAPGSGKGTVSSRITTHFELKHLSSGDLLRDNMLRGTEIGVLAKAFIDQGKLIPDDVMTRLALHELKNLTQYSWLLDGFPRTLPQAEALDRAYQIDTVINLNVPFEVIKQRLTARWIHPASGRVYNIEFNPPKTVGIDDLTGEPLIQREDDKPETVIKRLKAYEDQTKPVLEYYQKKGVLETFSGTETNKIWPYVYAFLQTKVPQRSQKASVTP
B1: the Km turned out to be 10 ± 1.5 µM and the kcat/Km was determined as 5.7e+06 ± 900000 M⁻¹ s⁻¹.

These data come from article PMC8325564.
